Assay results from patent US12514920B1, “Respiratory syncytial virus mRNA vaccine, and preparation method therefor and use thereof” (Hangzhou Tianlong Pharmaceutical Co., Ltd., priority 2024, dated 2026).

Assays:
[1] = system: RSV pre-F antibody (3C12); test: Binding of epitope Φ of RSV F antigen mutants by flow cytometry; conditions: for RSV pre-F antibody (3C12) Epitope Φ (%): binding rate, 293T cells 16 h after mRNA-LNP transfection; for Φ/II (%): ratio of epitope Φ (3C12) to epitope II (11A9) binding rate
Text: (§1) To investigate whether the RSV F antigen mutants have pre-fusion epitopes, an RSV pre-F antibody (3C12) (specifically binding to the RSV pre-F epitope […]) and an RSV F antibody (11A9) (binding to pre-F and post-F epitopes II) were detected by flow cytometry in this example, and RSV F protein mutants in the pre-F conformation were expected to bind to the antibodies tested.
(§2) • 293T cells (purchased from ATCC cell bank); RSV pre-F antibody (3C12), epitope […] (Novoprotein, Cat. No.: DA101); RSV F antibody (11A9), epitope II (Novoprotein, Cat. No.: DA091); • experimental groups: mRNA vaccines corresponding to the expressed antigens in Example 3;
(§3) • (1) Cell transfection: 293T cells were seeded at 1.3×10^5 cells/well in a 24-well plate. The next day, mRNA-LNP samples (containing 300 ng of mRNA) were added directly to the cells, and the mixture was uniformly mixed. • (2) Cell collection: The cells were taken out of the incubator after 16 h of transfection, the medium was pipetted off, 500 μL of 0.1% BSA solution was pipetted to wash the medium remaining in the well plate, taking care not to resuspend the cells, and the 0.1% BSA solution was pipetted off. 500 μL of 0.1% BSA solution was added to each well, and the cells were pipetted and transferred to a 1.5 mL centrifuge tube. • (3) Centrifugation: The cells were harvested by centrifugation at 400 g for 5 min at 4° C. in the dark, and the supernatant was discarded. • (4) Straining: 50.6 μL of RSV fluorescent antibody diluent was added to each of the control sample and the test samples to resuspend the cells, and the samples were incubated at 4° C. for 2 h in the dark. • (5) Cleaning: After the incubation was completed, 500 μL of 0.1% BSA solution was added to each tube, the cells were harvested by centrifugation at 400 g for 5 min at 4° C. in the dark, and the supernatant was discarded. This operation was repeated three times. • (6) Resuspension of cells: 200 μL of 0.1% BSA solution was added to each sample, and the cells were carefully pipetted to prepare a cell suspension. • (7) Detection on flow cytometer: The […] of RSV F mutants to antibodies were measured using flow cytometry, with 1×10^4 cells detected in each measurement.
(§4) The RSV pre-F antibody (3C12) used in this example specifically binds to the RSV pre-F epitope Φ, and the RSV F antibody (11A9) binds to the pre-F and post-F epitopes II. Whether the pre-fusion conformations of the RSV F mutants are stable can be further determined by detecting the binding of the epitope Φ and the epitope II on the mutants to corresponding epitopes of antibodies 3C12 and 11A9, respectively, by flow cytometry.

[2] = system: RSV F antibody (11A9); test: Binding of epitope II of RSV F antigen mutants by flow cytometry; conditions: for RSV F antibody (11A9) Epitope II (%): binding rate, 293T cells 16 h after mRNA-LNP transfection
Text: as §1, §2, §3, §4

[3] = system: RSV pre-F antibody (3C12); type: physicochemical; conditions: ELISA binding to 3C12
Text: To investigate the stability of the RSV F antigen mutants under different pH, temperature, osmotic pressure and other conditions, the mutants were subjected to stress tests under different treatment conditions in this example.
• 293T cells (purchased from ATCC cell bank); • Primary antibody: RSV pre-F antibody (3C12), epitope Φ (purchased from Suzhou Novoprotein Scientific Co., Ltd. (hereinafter referred to as Novoprotein), Cat. No.: DA101); • Standard: RSV pre-F trimer protein (Novoprotein, Cat. No.: DRA230); • Secondary antibody: peroxidase AffiniPure goat anti-human IgG (H+L) (purchased from Yeasen Biotechnology (Shanghai) Co., Ltd. (hereinafter referred to as Yeasen), Cat. No.: N/A); • Experimental group: mRNA vaccines after screening in Example 4;
Coating: A 96-well microplate was coated with a working solution and incubated at 2 to 8° C. for 16 to 20 h.
Plate washing: Phosphate buffered saline PBST was added to each well, and the plate was washed 5 times using a plate washer and patted dry on absorbent paper.
Blocking: After a blocking solution was added, the […] were placed on a constant temperature microplate shaker and incubated at 400 rpm for 1.5 h at 37° C.
Plate washing: PBST was added to each well, and the plate was washed 5 times using a plate washer and patted dry on absorbent paper.
Primary antibody incubation: A primary antibody dilution was added to each well, and the plate was sealed with a sealing film, and then incubated at 400 rpm for 1.5 h at 37° C.
Secondary antibody incubation: A secondary antibody dilution was added to each well, and the plate was sealed with a sealing film, and then incubated at 400 rpm for 45 min at 37° C.
Color development: A chromogenic solution was added, and the plate was sealed with a sealing film, and then placed on a constant temperature microplate shaker and incubated at 400 rpm for 25 min at 37° C.
Reaction stopping: After the color development was completed, a stop buffer was added at […] to the microplate to stop the reaction.
Plate reading: Absorbance values (OD values) were read within 5 min using a multimode microplate reader, with dual wavelengths of 450 nm and 630 nm set.
In this example, stability screening of the mutants through different treatment conditions was defined as a stress test, including storage at 4° C. for one week; incubation at 50° C. for 60 min; treatment at room temperature under low osmotic pressure and high osmotic pressure conditions for 60 min; treatment at room temperature under acid and base conditions for 60 min. The binding of the mutants to the RSV pre-F antibody (3C12) recognizing the epitope Φ was detected by ELISA.

Molecule	RSV pre-F antibody (3C12) Epitope Φ (%) ([1]; flow cytometry)	Φ/II (%) [1]	RSV F antibody (11A9) Epitope II (%) [2]	RSV pre-F antibody (3C12) Epitope Φ (%) binding rate ([1]; flow cytometry, epitope Φ, antibody 3C12)	RSV F antibody (11A9) Epitope II (%) binding rate ([2]; epitope II, antibody 11A9)	Stress resistance parameter, Osmotic pressure (mM) 3000 ([3]; high osmotic pressure 3000 mM, room temperature, 60 min)	Stress resistance parameter, Temperature (° C.) 50 ([3]; incubation at 50° C. for 60 min)	Stress resistance parameter, Osmotic pressure (mM) 10 ([3]; low osmotic pressure 10 mM, room temperature, 60 min)	Stress resistance parameter, pH 3.5 ([3]; pH 3.5, room temperature, 60 min)	Stress resistance parameter, pH 10 ([3]; pH 10, room temperature, 60 min)	Stress resistance parameter, Temperature (° C.) 4 ([3]; storage at 4° C. for one week)
YK-RSV-033 (protein) QNITEEFYQSCCSAVSKGYLGALRTGWYTSVITIELSNIKENKCNGTDAKVKLIKQELDKYKNAVTDLQLLMQSTPATGSGSAIASGVAVSKVLHLEGEVNKIKSALLSTNKAVVSLSNGVSVLTFKVLDLKNYIDKQLLPILNKQSCSIPNIETVIEFQQKNNRLLEITREFSVNAGVTTPVSTYMLTNSELLSLINDMPITNDQKKLMSNNVQIVRQQSYSIMSIIKEEVLAYVVQLPLYGVIDTPCWKLHTSPLCTTNTKEGSNICLTRTDRGWYCDNAGSVSFFPQAETCKVQSNRVFCDTMNSRTLPSEVNLCNVDIFNPKYDCKIMTSKTDVSSSVITSLGAIVSCYGKTKCTASNKNRGIIKTFSNGCDYVSNKGVDTVSVGNTLYYVNKQEGQSLYVKCEPIINFYDPLVFPSDEFDASISQVNEKINQSLAFIRKSDELLHNVNAGKSTTNIMITTIIIVIIVILLSLIAVGLLLY	72.0%	87.4%	82.4%								
YK-RSV-041 (protein) QNITEEFYQSTCSAVCKGYLGALRTGWYTSVITIELSNIKENKCNGTDAKVKLIKQELDKYKNAVTDLQLLMQSTPATGSGSAIASGVAVSKVLHLEGEVNKIKSALLSTNKAVVSLSNGVSVLTFKVLDLKNYIDKQLLPILNKQSCSIPNIETVIEFQQKNNRLLEITREFSVNAGVTTPVSTYMLTNSELLSLINDMPITNDQKKLMSNNVQIVRQQSYSIMSIIKEEVLAYVVQLPLYGVIDTPCWKLHTCPLCTTNTKEGSNICLTRTDRGWYCDNAGSVSFFPQAETCKVQSNRVFCDTMNSRTLPSEVNLCNVDIFNPKYDCKIMTSKTDVSSSVITSLGAIVSCYGKTKCTASNKNRGIIKTFSNGCDYVSNKGVDTVSVGNTLYYVNKQEGQSLYVKGEPIINFYDPLVFPSDEFDASISQVNEKINQSLAFIRKSDELLHNVNAGKSTTNIMITTIIIVIIVILLSLIAVGLLLY	73.7%	90.4%	81.5%								
YK-RSV-042 (protein) QNITEEFYQSTCSAVSKGCLGALRTGWYTSVITIELSNIKENKCNGTDAKVKLIKQELDKYKNAVTDLQLLMQSTPATGSGSAIASGVAVSKVLHLEGEVNKIKSALLSTNKAVVSLSNGVSVLTFKVLDLKNYIDKQLLPILNKQSCSIPNIETVIEFQQKNNRLLEITREFSVNAGVTTPVSTYMLTNSELLSLINDMPITNDQKKLMSNNVQIVRQQSYSIMSIIKEEVLAYVVQLPLYGVIDTPCWKLHTCPLCTTNTKEGSNICLTRTDRGWYCDNAGSVSFFPQAETCKVQSNRVFCDTMNSRTLPSEVNLCNVDIFNPKYDCKIMTSKTDVSSSVITSLGAIVSCYGKTKCTASNKNRGIIKTFSNGCDYVSNKGVDTVSVGNTLYYVNKQEGQSLYVKGEPIINFYDPLVFPSDEFDASISQVNEKINQSLAFIRKSDELLHNVNAGKSTTNIMITTIIIVIIVILLSLIAVGLLLY	49.8%	81.5%	61.1%								
YK-RSV-004 (protein) QNITEEFYQSTCSAVSKGYLGALRTGWYTSVITIELSNIKENKCNGTDAKVKLIKQELDKYKNAVTDLQLLMQSTPATGSGSAICSGVAVCKVLHLEGEVNKIKSALLSTNKAVVSLSNGVSVLTIKVLDLKNYIDKQLLPIVNKQSCPISNIETVIEFQQKNNRLLEITREFSVNAGVTTPVSTYMLTNSELLSLINDMPITNDQKKLMSNNVQIVRQQSYSIMCIIKEEVLAYVVQLPLYGVIDTPCWKLHTSPLCTTNTKEGSNICLTRTDRGWYCDNAGSVSFFPQAETCKVQSNRVFCDTMNSRTLPSEVNLCNVDIFNPKYDCKIMTSKTDVSSSVITSLGAIVSCYGKTKCTASNKNRGIIKTFSNGCDYVSNKGVDTVSVGNTLYCVNKQEGQSLYVKGEPIINFYDPLVFPSSEFDASISQVNEKINQSLAFIRKSDELLHNVNAGKSTTNIMITTIIIVIIVILLSLIAVGLLLY		91.1%		82.1%	90.1%	0.46 ± 0.13	0.48 ± 0.05	0.91 ± 0.23	0.97 ± 0.21	1.00 ± 0.27	0.72 ± 0.06
YK-RSV-053 (protein) QNITEEFYQSTCSAVSKGYLGALRTGWYTSVITIELSNIKENKCNGTDAKVKLIKQELDKYKNAVTDLQLLMQSTPATGSGSAICSGVAVSKVLHLEGEVNKIKSALLSTNKAVVSLSNGVSVLTFKVLDLKNYIDKQLLPILNKQSCSIPNIETVIEFQQKNNRLLEITREFSVNAGVTTPVSTYMLTNSELLSLINDMPITNDQKKLMSNNVQIVRQQSYSIMSIIKEEVLAYVVQLPLCGVIDTPCWKLHTSPLCTTNTKEGSNICLTRTDRGWYCDNAGSVSFFPQAETCKVQSNRVFCDTMNSRTLPSEVNLCNVDIFNPKYDCKIMTSKTDVSSSVITSLGAIVSCYGKTKCTASNKNRGIIKTFSNGCDYVSNKGVDTVSVGNTLYYVNKQEGQSLYVKGEPIINFYDPLVFPSDEFDASISQVNEKINQSLAFIRKSDELLHNVNAGKSTTNIMITTIIIVIIVILLSLIAVGLLLY	40.0%	59.7%	67.0%								
